The DeepSol protein solubility set

Assay: soluble on expression in E. coli; label from the status in PepcDB or PDB records

Row | Sequence | soluble on expression in E. coli
1 | MENISDLWNSALKELEKKVSKPSYETWLKSTTAHNLKKDVLTITAPNEFARDWLESHYSELISETLYDLTGAKLAIRFIIPQSQAEEDIDLPPVKPNPAQDDSAHLPQSMLNPKYTFDTFVIGSGNRFAHAASLAVAEAPAKAYNPLFIYGGVGLGKTHLMHAIGHYVIEHNPNAKVVYLSSEKFTNEFINSIRDNKAVDFRNKYRNVDVLLIDDIQFLAGKEQTQEEFFHTFNALHEESKQIVISSDRPPKEIPTLEDRLRSRFEWGLITDITPPDLETRIAILRKKAKAEGLDIPNEVMLYIANQIDSNIRELEGALIRVVAYSSLINKDINADLAAEALKDIIPNSKPKIISIYDIQKAVGDVYQVKLEDFKAKKRTKSVAFPRQIAMYLSRELTDSSLPKIGEEFGGRDHTTVIHAHEKISKLLKTDTQLQKQVEEINGILKLEHHHHHH | not soluble
2 | MENIVNRTYTRIGQLLKQDISQGIYSIGDKLPTEREISEKFGVSRTIVREAMVMLEVEKLVEVKKGSGVYVVRTPESIHMEHSDLPDVGPFELLQARQLLESSIAEFAALQATKKDILNLKQILNREKELLTQNQDDYSADKDFHLALAEITQNDVLVKLQEQLWQYRFNSAMWAQLHSRILQNDYHHLWIEDHQTILSAIQKKNANEARKAMWQHLENVKVKLFELSDVEDPHFDGYLFNTNPVVVGI | not soluble
3 | MENKEISYEIIDFSGETNVQFRTSVDPGSYIPTHWHRAIEIIYMQEGSLDVIVESESFTIYKGDCILVNGNVLHSTKCTAPNTAILLQIPLNFMEKYIPNLGQLIFLWDYRTEDPVKKTKLMMLKTTLEQLQVINDIQPDGYLLRFNSLIFELMFQLYHNFSVQVFPQDINHKKKEMDRLDP | not soluble
4 | MENPDSAFLLFRNAPRLPLATMHTPLCGDSHQPDFAFRKPARDALLRPWNGRNHRCGLQDGREICQGQLPAHQKSYWSDCAALPRLFRAYGGAVVRGFLIVGNKAFTQPFSLNDLPGAGRMDVLCRCTSQALFISHGIRRDVEVYLLLLGPPSPPKSILIKGDEVRRMSPDERNVAGHIKKALAVECGKSWKKVHSGVYVSRKGLEELIEELSEKYSIIYLKEDGVDISNAQLPPNPLFVIGDHEGLTEEQEKVVERYAALKLSLSPLSLLAEQCVVIAHHHLDRLQF | not soluble
5 | MENSDDIRLIVKIAQLYYEQDMTQAQIARELGIYRTTISRLLKRGRDQGMVTIAINYDYNENLWLEQQLKQKFGLKDVVVVSGNDEDEETQLAMMGLHGAQLLDRLLEPGDIVGFSWGRAVSALVENLPQAGQSRQLICVPIIGGPSGKLESRYHVNTLTYSAAAKLKGESHLADFPALLDNPLIRNGIMQSQHFKTISAYWDNLDIALVGIGSPAIRDGANWHAFYGGEESDDLNARQVAGDICSRFFDIHGAMVETNMSEKTLSIEMNKLKQARYSIGIAMSEEKYSGIIGALRGKYINCLVTNSSTAELLLK | soluble
6 | MEPPKPEYAPTAHSRYNSQYFYWLFLDLFHLEPSMKLFPSLATLTLCSLMSAPLLAAEQAPELTGCAAKRQAIMNQIEQAKAHGNSNQQAGLERALSEVTAHCTDASLKKERENKVLEAKHEVSRRQADLEKAMKKGDSEKINKRKDKLAESRKELQQALDELDKLEHHHHHH | not soluble
7 | MEQLRGLYPPLAAYDSGWLDTGDGHRIYWELSGNPNGKPAVFIHGGPGGGISPHHRQLFDPERYKVLLFDQRGCGRSRPHASLDNNTTWHLVADIERLREMAGVEQWLVFGGSWGSTLALAYAQTHPERVSEMVLRGIFTLRKQRLHWYYQDGASRFFPEKWERVLSILSDDERKDVIAAYRQRLTSADPQVQLEAAKLWSVWEGETVTLLPSRESASFGEDDFALAFARIENHYFTHLGFLESDDQLLRNVPLIRHIPAVIVHGRYDMACQVQNAWDLAKAWPEAELHIVEGAGHSYDEPGILHQLMIATDRFAGK | soluble
8 | MEQPLMPPAPPSYVASQSQAITTQPGASIPMPPGTIVIEALPPVEGIPGGLEYLAYLDTIMVHQFLEPIEIRTGWETKNKYAIKKICYQKRQCCGAERAFVMHIVDNFNKEVLTVKRERHCCGCCCWLGSTNKSTIESPSMGLLGTVLLGHGCTNSHCNVLDKDEELLFLVDGQGCCTYCCCDDKAFTIKTPDTYKRIGAITKKWGGIIREAYTDADTFAVTFPADLDVKAKALLLATTILQSLRVVVEVEKLEIEIFICCALFMK | not soluble
9 | MERDTVVKEVVEALKIFSRDIRTQIDEMGSQLRAEIQDTANQLRAEIQDTANQLRAEMQETANQLRAEMQETANQLRAEMQQFRAEVNERFDRLEQKFAGLRVELTETQETVHFLASKTIQHEKKLHHLAKQLESIR | not soluble
10 | MERMSDSADKPIDNDAEGVWSPDIEQSFQEALAIYPPCGRRKIILSDEGKMYGRNELIARYIKLRTGKTRTRKQVSSHIQVLARRKSRDFHSKLKDQTAKDKALQHMAAMSSAQIVSATAIHNKLGLPGIPRPTFPGGPGFWPGMIQTGQPGSSQDVKPFVQQAYPIQPAVTAPIPGFEPTSAPAPSVPAWQGRSIGTTKLRLVEFSAFLEQQRDPDSYNKHLFVHIGHANHSYSDPLLESVDIRQIYDKFPEKKGGLKELFGKGPQNAFFLVKFWADLNCNIQDDAGAFYGVSSQYESSENMTVTCSTKVCSFGKQVVEKVETEYARFENGRFVYRINRSPMCEYMINFIHKLKHLPEKYMMNSVLENFTILLVVTNRDTQETLLCMACVFEVSNSEHGAQHHIYRLVKD | soluble
11 | MERRSTDLLVLGAGVAGVYAALAAEERGARVLLVSKDPLPAGSTPWAQGGVAFPVGEEDLEAHLRDTLVAGRGLVEEGVARSILEEAPRHLERLRAFGLPFHPEPTREGGHSRARVFHLGGDRSGLLLLEGLLKRLSTPVVPAQALSLLVSGNRVAGALLWGPGGLWEVRAGAVLLATGGFGRLFPVTTNPHGATGDGMALAWRAGAVLRDLEFVQFHPTALPNGALVSEACRGEGALLLNAHGERFMPRYDPLAELAPRDVVARAVFRERERTGGVYLDLRPIPHLEERFPTVVAQARALGLDPLRAPLPVAPAAHYAMGGVRTDAFGHTGIPGLFAAGEVASTGFHGANRLASNSLLEGLVVGWRAALRALEDLAFPPRATPLPALAAPPEAVASLREEAGEALGVVRRKETLLAFLRRAEAVPLEEVEQASRDRLEAGSLLLLMRLLARAALAREESRGAHFREDFPLEDRPRHSLFQGWRLGFLPVGVE | soluble
12 | MERVSITERPDWRDKATEYGFNFHTMYGEPYWCEDAYYKLTLAQVEKLEDVTAELHQMCLKVVERVIASDELMTKFRIPKHTWGFVRQSWQTQQPSLYSRLDLAWDGIGEPKLLENNADTPTSLYEAAFFQWIWLEDQINAGNLPEGSDQFNSLQEKLIERFAELREQYGFQLLHLTCCRDTVEDRGTIQYLQDCAAEAEIATEFLYIDDIGLGEKGQFTDLQDQVIANLFKLYPWEFMLREMFSTKLEDAGVRWLEPAWKSIISNKALLPLLWEMFPDHPNLLPAYFAEDEHPPMDKYVVKPIFSREGANVSIIENGKTIESVEGPYGEEGMIVQQFYPLPKFGDSYTLIGSWLINDQPAGIGIREDRALITQDLSRFYPHIFVEG | not soluble
13 | MESIVDKQAVKHFLLQLQDKICQQLEATDGQAQFIEDAWQREPGEKLGGGGRTRVMREGAVFEQGGVNFSHVFGEQMPASATAHRPELAGRRFEAMGVSLVMHPKNPYVPTSHANVRFFIAEKEGEAPIWWFGGGFDLTPFYPFVEDGQHWHQTAKNICAPFGSEIYNEHKAWCDRYFYLPHRNETRGIGGLFFDDLNEWSFEQCFAYMQAVGEGYTQAYVPIVEKRKNTPFTERERQFQLYRRGRYVEFNLVLDRGTLFGLQTGGRTESILMSMPPLARWEYAYQPQAGTPEAKLSEFLVPREW | not soluble
14 | MESMLLPKYFDILIVDDIPEHIDVAVQVLRDSNFKIRVATDGNTALKLIYQQKPDLILLDIYMPEMDGFELCRLIKNTPDLKNIPVIFLTSFSDEESIRKGFESGGQDYVVKPFNASELLSRVKTHLMLKCQAESLKEANKELDSFCYTVAHDLKSPLLSLNKLVELLVSDHLNQLDSAGKELVYNIREKSSEIIHTVDRLLEFSKMCEMQVNFEIIDLNELFTEVCNELKSLEPQRDIRIHIQPLPKVYGDRLLMRLLISNILSNAFKYTRNRQTAIIEIQSSEDGNEYVFFVKDNGAGFDMKYSSRLFGVFQRLHSKDEFEGSGVGLAICQRILKRHNGRAWMTGEIDKGATFFFTLPKFE | soluble
15 | MESPSALPSLDQLLKEQGADQTLTDLILAILDRCGKIASALQGTSVDKVGSVNEFGDEQLTVDVIAENLLRSWAQSSEGSAVRAVCSEEDIHLQECHKNGEFILCWDPLDGSSIIDCNWAVGSIVSIWRIGHHGVQWQGADTLIQKTGRQQVASLIVVYGPRTTGVVAVNVDAGGIVKEGTALDLEMKDNGKFICRGKPIIKPQAKIFSPANLRAAQDLPAYKQLIEFWMEKRYTLRYTGGLVPDVYQIFVKQQGVFCNPASKAAPAKLRMCFEVLAIALVVEAAGGRTSNGQKSLLDVAIEHMDHRSALCCGSADEIKRMEETFAALSG | soluble
16 | MESQVRQNFHQDCEAGLNRTVNLKFHSSYVYLSMASYFNRDDVALSNFAKFFRERSEEEKEHAEKLIEYQNQRGGRVFLQSVEKPERDDWANGLEALQTALKLQKSVNQALLDLHAVAADKSDPHMTDFLESPYLSESVETIKKLGDHITSLKKLWSSHPGMAEYLFNKHTLG | soluble
17 | MESVKCFDMITAFFDLSDSVHVVRKNGGLAFGKTWLGNFFVLVREVKILRATTEKFSLVNLRKLEPHSGQFRNQIREESAYRHPFLRIVVKVILAKRLRPLPYLTSKSK | not soluble
18 | MESYLRLSEVDKQILHSHALMLDGLGNFFGSTHEVILHSLENLESSAIKVINGHFSNRKEGAPITDMALKMLSQVESEHDYAVKPYYNKNQKGVILKSSTIPVIGENDRIIGLICINMHLEMPLIDYLQDLLPSGQQNDMSQELKNSEHFSDNIDELITTSLTKVKQAVESDPNVSHLNQNKEIVIRLYDQGIFNLKDSVIKIADRLGISKNTIYLHIRNHKKEEA | not soluble
19 | METKDLIVIGGGINGAGIAADAAGRGLSVLMLEAQDLACATSSASSKLIHGGLRYLEHYEFRLVSEALAEREVLLKMAPHIAFPMRFRLPHRPHLRPAWMIRIGLFMYDHLGKRTSLPGSTGVRFGADSVLKPEIVRGFEYSDCWVDDARLVLANAQMVVRKGGEVLTRTRATAARRENGLWIVEAEDIDTGKKYVWQARGLVNATGPWVKQFFDEGMHLPSPYGIRLIKGSHIVVPRVHNQKQAYILQNEDKRIVFVIPWMEEFSIIGTTDVEYKGDPKAVKIEESEINYLLKVYNAHFQKQLGRDDIVWTYSGVRPLCDDESDSPQAITRDYTLDIHDENGKAPLLSVFGGKLTTYRKLAEHAMEKLASYYPGIGPAWTKTCVLPGGDIDGSREDYAAKLRRRYPFLTESLARHYSRTYGSNTEWILGEATSLLDLGEDFGHEFYEAELKYLVDHEWVRRTEDAIWRRTKEGMWLTAEQQSRITQWLAAYVEKHQLSMAS | not soluble
20 | METPQDSRQSIQKPPSPAAEEDKEEQPGGNAVVSGAPEERIDKKELVLNWLAQGEFDQGEGAQGEVAGGEQAQEEPAPLSPAQEATGGEEEGENKEGEMEGRHAGDGASSSEDDSILEEGGENIDQQPPQQEAASPDSIRNPHVLNRLAQLRYRRTRFTHFQLHDLERLFQETRYPSLRARRDLARWMGVDECDVQNWFRMRRALFQRNRRVLMFCELPPLPQSDSP | soluble
